We go through 2 proteins from publication PMC3316156 (Biochemical Journal, 2012).

The series “cross-linking” deals with the molecule itself. The experiment in a line: cross-linking.
Substrate in series [1]: N[C@@H](CO)C(=O)O
The experiment in a line: cystathionine production by LC-MS/MS, non-linear fit. Type of series: biochemical, Caenorhabditis elegans. Conditions: co-substrate homocysteine, 100 mM Bis/Tris pH 8.0, 25 °C.

Substrate in series [2]: N[C@@H](CCS)C(=O)O
The description is as above. Type of series: biochemical, Caenorhabditis elegans. Conditions: co-substrate serine, 100 mM Bis/Tris pH 8.0, 25 °C.

The term stoichiometry N denotes a count of units in the complex or per binding partner. The Km is the concentration of substrate that gives half-maximal velocity. One may read the kcat as the number of substrate molecules converted per active site and unit of time at saturation. In general, kcat/Km refers to the turnover number divided by the Michaelis constant.

B1: human 45CBS (C-terminally truncated human cystathionine β-synthase, residues 1-413) (domain or fragment, UniProt P35520 1-413, looked up)
chain: MPSETPQAEVGPTGCPHRSGPHSAKGSLEKGSPEDKEAKEPLWIRPDAPSRCTWQLGRPASESPHHHTAPAKSPKILPDILKKIGDTPMVRINKIGKKFGLKCELLAKCEFFNAGGSVKDRISLRMIEDAERDGTLKPGDTIIEPTSGNTGIGLALAAAVRGYRCIIVMPEKMSSEKVDVLRALGAEIVRTPTNARFDSPESHVGVAWRLKNEIPNSHILDQYRNASNPLAHYDTTADEILQQCDGKLDMLVASVGTGGTITGIARKLKEKCPGCRIIGVDPEGSILAEPEELNQTEQTTYEVEGIGYDFIPTVLDRTVVDKWFKSNDEEAFTFARMLIAQEGLLCGGSAGSTVAVAVKAAQELQEGQRCVVILPDSVRNYMTKFLSDRWMLQKGFLKEEDLTEKKPWWWHLR
For the protein B1, the “stoichiometry N” value in “cross-linking” worked out at 2.

B2: CBS-1 (Caenorhabditis elegans) (protein)
chain: MIQNEVSATHGSTKKGITYNTILEAAQRPTPLVPLKKLKVEHQLQSDIYVKLEYLNIAGSLEDRTADKAFQFAEEIGVVRGDEVFVTAGGSAAISYATVAAVKGIKLTIYAPKGEFDLVDTVLHTLGVKTVELPFGTFAEARVQTDEAAQQKGVFSLNKFTTNAAFVANLQKTALEIEKAVNNKSIGKVGAVVIPLNTGAAAAGIAAYYKGIGEHGVRVVGVTCKKDTIPEMGLDLKNDLLQEYNVEKREVEEDEAYSFTRHLIGTEGIMAGPSSGAAVLEAIKLAKELPAGSTIVVVLMDGIRNYLRHFLDDDWITANKKDVVTRKDGPQPNSIYDPKVLVYDPTKLAGEWTQDPETKSWSHSEVEFNKFNPERPLVLDTVLDAIGKTPLVKLQHIPKAHGVKCNVYVKCEYMNAGGSTKDRIAKRMVEIAEKTGKPGKLVPGVTLIEPTSGNTGIGLSLASAVRGYKCIITMPKKMSKEKSIAMASLGSTIIRTPNEAGFDSPHSHIGVALRLKSEIQDAVVLDQYCNPGNPLAHYEETAEEIIYDMGDKHIDLVVLTAGTGGTVTGISRKIHERIPTAKVVGVDPHGSILAGPAETDIDFYEVEGIGYDFLPGTLDTSAIDYWAKSHDKESFLMARELIRSEGILCGGSSGCAVHYALEECKSLNLPAEANVVVLLPDGIRNYITKFLDDDWMNERHFLDA
Take B2: in series [1], the Km came out at 5.57 ± 0.68 mM, the kcat was determined as 48.1 ± 2.95 s⁻¹ and the kcat/Km amounted to 8500 M⁻¹ s⁻¹. In series [2], the Km turned out to be 4.29 ± 0.97 mM, the kcat worked out at 43.3 ± 4.33 s⁻¹ and the kcat/Km was 10000 M⁻¹ s⁻¹.
